Ki data for five molecules are collected here from publication PMC3151165 (2009).

One test deals with T1, mu opioid receptor (Rattus norvegicus, UniProt P33535).
T1 chain: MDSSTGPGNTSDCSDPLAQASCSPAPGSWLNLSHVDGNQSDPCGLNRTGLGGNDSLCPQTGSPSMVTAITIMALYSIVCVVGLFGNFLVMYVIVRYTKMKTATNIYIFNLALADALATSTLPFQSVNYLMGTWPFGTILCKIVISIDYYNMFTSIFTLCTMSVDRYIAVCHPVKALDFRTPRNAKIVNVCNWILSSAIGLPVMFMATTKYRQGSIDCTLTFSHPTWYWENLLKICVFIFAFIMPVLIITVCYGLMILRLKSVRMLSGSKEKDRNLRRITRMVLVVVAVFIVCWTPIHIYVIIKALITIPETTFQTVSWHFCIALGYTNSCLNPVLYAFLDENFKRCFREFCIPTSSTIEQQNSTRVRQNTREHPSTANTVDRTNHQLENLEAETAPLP
The test can be described thus: radioligand competition. Background: Loss of bound radioactivity is the signal in a displacement assay; it reports binding, not function.

Another test deals with T2, delta opioid receptor (Mus musculus, UniProt P32300).
T2 chain: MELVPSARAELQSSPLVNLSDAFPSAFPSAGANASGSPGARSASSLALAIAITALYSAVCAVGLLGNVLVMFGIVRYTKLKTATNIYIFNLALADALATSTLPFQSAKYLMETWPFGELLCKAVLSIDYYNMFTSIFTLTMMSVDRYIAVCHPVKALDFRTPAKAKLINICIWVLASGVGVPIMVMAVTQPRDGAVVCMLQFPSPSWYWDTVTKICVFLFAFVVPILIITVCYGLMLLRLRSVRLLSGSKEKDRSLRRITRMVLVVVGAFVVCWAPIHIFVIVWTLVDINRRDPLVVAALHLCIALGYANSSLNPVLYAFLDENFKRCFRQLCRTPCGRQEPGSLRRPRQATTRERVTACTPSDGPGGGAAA
The test can be described thus: radioligand competition.

Usually Ki stands for the dissociation constant of the complex between target and ligand, obtained from inhibition or displacement. Low values mean tighter binding, high ones weaker binding. Regarding YAGFARRIRPK (cis -CH=CH- bridge between Ala2 and Ala5 side chains, C-terminal amide) [cyclo[Ala2(-CH=CH-)Ala5]Dyn A-(1-11)NH2 cis (1)], the Ki in the test with mu opioid receptor is 763 nM; in the test with delta opioid receptor, 7670 nM.

B1: cyclo[D-Ala2(-CH=CH-)Ala5]Dyn A-(1-11)NH2 cis (3) (peptide)
chain: YAGFARRIRPK
modifications: D-Ala2, cis -CH=CH- bridge between residues 2 and 5 side chains, C-terminal amide
Turning to B1, the Ki in the test with mu opioid receptor came to 2.33 nM; with delta opioid receptor it was 9.3 nM.

YGGFARRARPK (cis -CH=CH- bridge between Ala5 and Ala8 side chains, C-terminal amide) [cyclo[Ala5(-CH=CH-)Ala8]Dyn A-(1-11)NH2 cis (5)] had a Ki with mu opioid receptor of 93 nM.

Turning to YAGFARRIRPK (trans -CH=CH- bridge between Ala2 and Ala5 side chains, C-terminal amide) [cyclo[Ala2(-CH=CH-)Ala5]Dyn A-(1-11)NH2 trans (2)], the Ki with mu opioid receptor was 180 nM; in the test with delta opioid receptor, 1130 nM.

In turn, YGGFARRARPK (trans -CH=CH- bridge between Ala5 and Ala8 side chains, C-terminal amide) [cyclo[Ala5(-CH=CH-)Ala8]Dyn A-(1-11)NH2 trans (6)] showed a Ki with mu opioid receptor of 36 nM.
